Test results from the supplement of paper PMC10065799, “High-throughput profiling of sequence recognition by tyrosine kinases and SH2 domains using bacterial peptide display” (eLife, 2023).

target: MERTK (UniProt Q12866); test: phosphorylation enrichment, bacterial display (enrichment ratio); higher = better substrate or ligand; peptides without Tyr show the background
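Also: 11-residue human phosphosite peptides and single-mutation variants displayed on the E. coli surface, counted by deep sequencing, each peptide's frequency after selection divided by its frequency in the unselected input library; frequency after pTyr selection over input frequency; kinase dosed for 20-30% of maximal phosphorylation in three min.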

Sequence of MERTK (Q12866 whole entry, looked up): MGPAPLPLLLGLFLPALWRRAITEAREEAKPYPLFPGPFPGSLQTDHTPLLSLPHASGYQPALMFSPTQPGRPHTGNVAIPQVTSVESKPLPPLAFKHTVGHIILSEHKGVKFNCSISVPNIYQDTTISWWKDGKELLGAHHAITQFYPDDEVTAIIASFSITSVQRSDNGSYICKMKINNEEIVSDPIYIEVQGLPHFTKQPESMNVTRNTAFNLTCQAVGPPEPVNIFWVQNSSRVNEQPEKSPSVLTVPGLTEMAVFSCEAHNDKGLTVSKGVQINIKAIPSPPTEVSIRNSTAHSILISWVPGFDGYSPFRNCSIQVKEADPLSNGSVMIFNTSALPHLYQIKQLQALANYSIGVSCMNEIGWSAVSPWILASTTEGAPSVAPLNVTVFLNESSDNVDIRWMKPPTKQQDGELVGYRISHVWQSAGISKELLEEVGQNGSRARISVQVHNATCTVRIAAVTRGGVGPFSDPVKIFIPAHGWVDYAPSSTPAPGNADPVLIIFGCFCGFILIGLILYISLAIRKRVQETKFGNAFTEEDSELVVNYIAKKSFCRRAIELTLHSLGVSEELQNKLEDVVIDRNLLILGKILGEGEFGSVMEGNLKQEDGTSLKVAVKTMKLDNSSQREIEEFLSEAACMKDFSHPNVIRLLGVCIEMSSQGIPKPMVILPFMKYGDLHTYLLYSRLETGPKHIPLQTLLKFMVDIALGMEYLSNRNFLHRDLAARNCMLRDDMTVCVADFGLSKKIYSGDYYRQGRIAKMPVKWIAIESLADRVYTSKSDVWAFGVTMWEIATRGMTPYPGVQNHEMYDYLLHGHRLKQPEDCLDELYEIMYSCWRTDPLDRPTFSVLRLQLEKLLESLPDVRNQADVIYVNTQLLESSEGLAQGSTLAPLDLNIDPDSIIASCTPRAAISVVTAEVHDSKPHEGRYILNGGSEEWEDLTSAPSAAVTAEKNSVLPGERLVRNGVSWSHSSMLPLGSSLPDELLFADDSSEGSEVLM

Sequence	phosphorylation enrichment
QGGRRYMMIVD [GAA_Y438]	0.42
CCKNRYDKDKP [THAP1_Y14_G9C]	0.486
RPASQYPHQVP [ADAM12_Y895_P893S]	0.419
KMKGDYYCYLA [YWHAG_Y130_R132C]	6.74
HESEIYGKVCY [CSRP3_Y57_C58G]	1.08
EESREYDRLYE [PIK3R1_Y463_K459E]	0.465
WNRDKYAATTT [TRIM39_Y439_G436R]	0.471
CEAMEYLESKQ [BTK_Y511]	0.688
VLAAQYTTVGR [SGSH_Y240_D235V]	0.421
PLAVPYLDKPP [JMJD7_Y31]	0.614
IPKTWYSAEQF [CD207_Y217]	9.16
NTYEKYLGEEY [TF_Y669]	0.382
RAIGFYSATSK [FAM120A_Y328_YF]	1.03
SIIKDYFHRGT [GATM_Y203_A208T]	0.365
RIVRKYKKVRF [F8_Y442_G439V]	0.824
GLRFGYGVLGG [KRTAP20-2_Y15_YF]	0.311
SVTFTYSPALN [TP53_Y126_C124Y_YF]	0.336

Sequence	phosphorylation enrichment
IRCQGYSHRIL [MYO3B_Y993_R990C]	0.471
IDSTPYGQWFE [RPS8_Y109_R110G_YF]	0.473
SVQIVYKPVDL [MAPT_Y627]	0.376
GSPPPYRRRKR [MBD1_Y403]	0.593
EEGNPYFSSTR [MCCC2_Y520_A524T_YF]	0.349
PPGRSYSPYDY [TNS1_Y793]	0.653
VHNLNYYKKTT [FGFR3_Y647_D646N]	0.528
APGDAYGDAGY [SYP_Y250]	0.442
GDYLSYREFHS [ERBIN_Y1107]	0.489
GGCQEYTGAPF [NAXD_Y85_YF]	0.456
HSDFQYSQRSQ [PKP2_Y168_YF]	0.602
GAALAYGLDKS [HSPA9_Y230_A225G]	0.306
GVFSRYFTTFD [CLCA1_Y661_YF]	0.393
TSPKSYPSQKH [CAP2_Y316]	0.44
PLDAEYFTLQI [TP53_Y327_G325A]	0.603
VNYGAYINDFN [GLB1_Y488_K493N]	0.469

target: Hck (UniProt P08631); test: as above
Sequence (P08631 whole entry, looked up): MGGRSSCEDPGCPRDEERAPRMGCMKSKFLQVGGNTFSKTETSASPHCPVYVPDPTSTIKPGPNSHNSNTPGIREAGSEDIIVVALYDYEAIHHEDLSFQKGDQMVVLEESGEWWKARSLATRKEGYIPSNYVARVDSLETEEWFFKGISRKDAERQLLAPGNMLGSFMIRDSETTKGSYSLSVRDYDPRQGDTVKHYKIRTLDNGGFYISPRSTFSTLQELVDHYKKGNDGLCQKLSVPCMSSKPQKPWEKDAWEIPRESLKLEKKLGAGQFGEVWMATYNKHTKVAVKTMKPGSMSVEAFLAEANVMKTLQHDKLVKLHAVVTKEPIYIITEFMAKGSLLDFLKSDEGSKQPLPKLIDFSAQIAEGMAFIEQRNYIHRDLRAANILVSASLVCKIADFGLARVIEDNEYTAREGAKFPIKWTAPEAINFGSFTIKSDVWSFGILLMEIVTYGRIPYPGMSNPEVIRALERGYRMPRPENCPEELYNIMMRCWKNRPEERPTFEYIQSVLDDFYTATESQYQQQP

Sequence	phosphorylation enrichment
QGGRRYMMIVD [GAA_Y438]	0.354
CCKNRYDKDKP [THAP1_Y14_G9C]	0.384
RPASQYPHQVP [ADAM12_Y895_P893S]	0.553
KMKGDYYCYLA [YWHAG_Y130_R132C]	1.58
HESEIYGKVCY [CSRP3_Y57_C58G]	5.92
EESREYDRLYE [PIK3R1_Y463_K459E]	0.865
WNRDKYAATTT [TRIM39_Y439_G436R]	0.375
CEAMEYLESKQ [BTK_Y511]	0.751
VLAAQYTTVGR [SGSH_Y240_D235V]	0.543
PLAVPYLDKPP [JMJD7_Y31]	0.711
IPKTWYSAEQF [CD207_Y217]	0.542
NTYEKYLGEEY [TF_Y669]	0.688
RAIGFYSATSK [FAM120A_Y328_YF]	0.774
SIIKDYFHRGT [GATM_Y203_A208T]	0.463
RIVRKYKKVRF [F8_Y442_G439V]	0.547
GLRFGYGVLGG [KRTAP20-2_Y15_YF]	0.376
SVTFTYSPALN [TP53_Y126_C124Y_YF]	0.453

Sequence	phosphorylation enrichment
IRCQGYSHRIL [MYO3B_Y993_R990C]	0.475
IDSTPYGQWFE [RPS8_Y109_R110G_YF]	1.52
SVQIVYKPVDL [MAPT_Y627]	0.455
GSPPPYRRRKR [MBD1_Y403]	0.537
EEGNPYFSSTR [MCCC2_Y520_A524T_YF]	0.595
PPGRSYSPYDY [TNS1_Y793]	1.65
VHNLNYYKKTT [FGFR3_Y647_D646N]	0.464
APGDAYGDAGY [SYP_Y250]	0.463
GDYLSYREFHS [ERBIN_Y1107]	2.42
GGCQEYTGAPF [NAXD_Y85_YF]	0.506
HSDFQYSQRSQ [PKP2_Y168_YF]	0.718
GAALAYGLDKS [HSPA9_Y230_A225G]	0.402
GVFSRYFTTFD [CLCA1_Y661_YF]	0.661
TSPKSYPSQKH [CAP2_Y316]	0.363
PLDAEYFTLQI [TP53_Y327_G325A]	1.57
VNYGAYINDFN [GLB1_Y488_K493N]	0.533

target: Fes (UniProt P07332); test: as above
Sequence (P07332 whole entry, looked up): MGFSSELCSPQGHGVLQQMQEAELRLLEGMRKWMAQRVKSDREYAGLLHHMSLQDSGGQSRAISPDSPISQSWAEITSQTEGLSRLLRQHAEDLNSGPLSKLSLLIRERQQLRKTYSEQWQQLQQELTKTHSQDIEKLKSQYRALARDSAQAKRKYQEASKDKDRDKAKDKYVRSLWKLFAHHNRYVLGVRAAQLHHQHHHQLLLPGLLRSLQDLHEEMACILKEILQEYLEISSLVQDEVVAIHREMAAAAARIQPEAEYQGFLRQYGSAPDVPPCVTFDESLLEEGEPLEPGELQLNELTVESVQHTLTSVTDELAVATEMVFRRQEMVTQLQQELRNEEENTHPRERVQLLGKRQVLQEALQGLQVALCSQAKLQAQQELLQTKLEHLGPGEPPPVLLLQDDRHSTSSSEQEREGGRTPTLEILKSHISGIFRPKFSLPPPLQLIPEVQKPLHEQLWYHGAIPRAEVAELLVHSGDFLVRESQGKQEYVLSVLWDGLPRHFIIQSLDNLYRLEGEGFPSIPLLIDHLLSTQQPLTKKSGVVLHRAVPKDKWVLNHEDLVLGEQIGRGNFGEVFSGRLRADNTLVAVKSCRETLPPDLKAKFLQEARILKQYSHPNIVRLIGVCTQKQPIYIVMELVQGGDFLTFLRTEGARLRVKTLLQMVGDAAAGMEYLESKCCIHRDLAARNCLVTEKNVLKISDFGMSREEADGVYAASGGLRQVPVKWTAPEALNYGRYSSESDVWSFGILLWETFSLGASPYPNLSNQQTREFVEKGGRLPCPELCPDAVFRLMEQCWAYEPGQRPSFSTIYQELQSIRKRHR

Sequence	phosphorylation enrichment
QGGRRYMMIVD [GAA_Y438]	0.574
CCKNRYDKDKP [THAP1_Y14_G9C]	0.5
RPASQYPHQVP [ADAM12_Y895_P893S]	0.548
KMKGDYYCYLA [YWHAG_Y130_R132C]	1.24
HESEIYGKVCY [CSRP3_Y57_C58G]	1.32
EESREYDRLYE [PIK3R1_Y463_K459E]	1.44
WNRDKYAATTT [TRIM39_Y439_G436R]	0.59
CEAMEYLESKQ [BTK_Y511]	1.95
VLAAQYTTVGR [SGSH_Y240_D235V]	0.598
PLAVPYLDKPP [JMJD7_Y31]	1.06
IPKTWYSAEQF [CD207_Y217]	0.939
NTYEKYLGEEY [TF_Y669]	1.06
RAIGFYSATSK [FAM120A_Y328_YF]	1.03
SIIKDYFHRGT [GATM_Y203_A208T]	0.62
RIVRKYKKVRF [F8_Y442_G439V]	0.78
GLRFGYGVLGG [KRTAP20-2_Y15_YF]	0.782
SVTFTYSPALN [TP53_Y126_C124Y_YF]	1.21

Sequence	phosphorylation enrichment
IRCQGYSHRIL [MYO3B_Y993_R990C]	0.664
IDSTPYGQWFE [RPS8_Y109_R110G_YF]	1.18
SVQIVYKPVDL [MAPT_Y627]	1.12
GSPPPYRRRKR [MBD1_Y403]	0.605
EEGNPYFSSTR [MCCC2_Y520_A524T_YF]	0.814
PPGRSYSPYDY [TNS1_Y793]	1.38
VHNLNYYKKTT [FGFR3_Y647_D646N]	0.682
APGDAYGDAGY [SYP_Y250]	0.871
GDYLSYREFHS [ERBIN_Y1107]	0.903
GGCQEYTGAPF [NAXD_Y85_YF]	1.14
HSDFQYSQRSQ [PKP2_Y168_YF]	1.02
GAALAYGLDKS [HSPA9_Y230_A225G]	0.637
GVFSRYFTTFD [CLCA1_Y661_YF]	0.959
TSPKSYPSQKH [CAP2_Y316]	0.526
PLDAEYFTLQI [TP53_Y327_G325A]	1.63
VNYGAYINDFN [GLB1_Y488_K493N]	1

target: EPHB1 (UniProt P54762); test: as above
Sequence (P54762 whole entry, looked up): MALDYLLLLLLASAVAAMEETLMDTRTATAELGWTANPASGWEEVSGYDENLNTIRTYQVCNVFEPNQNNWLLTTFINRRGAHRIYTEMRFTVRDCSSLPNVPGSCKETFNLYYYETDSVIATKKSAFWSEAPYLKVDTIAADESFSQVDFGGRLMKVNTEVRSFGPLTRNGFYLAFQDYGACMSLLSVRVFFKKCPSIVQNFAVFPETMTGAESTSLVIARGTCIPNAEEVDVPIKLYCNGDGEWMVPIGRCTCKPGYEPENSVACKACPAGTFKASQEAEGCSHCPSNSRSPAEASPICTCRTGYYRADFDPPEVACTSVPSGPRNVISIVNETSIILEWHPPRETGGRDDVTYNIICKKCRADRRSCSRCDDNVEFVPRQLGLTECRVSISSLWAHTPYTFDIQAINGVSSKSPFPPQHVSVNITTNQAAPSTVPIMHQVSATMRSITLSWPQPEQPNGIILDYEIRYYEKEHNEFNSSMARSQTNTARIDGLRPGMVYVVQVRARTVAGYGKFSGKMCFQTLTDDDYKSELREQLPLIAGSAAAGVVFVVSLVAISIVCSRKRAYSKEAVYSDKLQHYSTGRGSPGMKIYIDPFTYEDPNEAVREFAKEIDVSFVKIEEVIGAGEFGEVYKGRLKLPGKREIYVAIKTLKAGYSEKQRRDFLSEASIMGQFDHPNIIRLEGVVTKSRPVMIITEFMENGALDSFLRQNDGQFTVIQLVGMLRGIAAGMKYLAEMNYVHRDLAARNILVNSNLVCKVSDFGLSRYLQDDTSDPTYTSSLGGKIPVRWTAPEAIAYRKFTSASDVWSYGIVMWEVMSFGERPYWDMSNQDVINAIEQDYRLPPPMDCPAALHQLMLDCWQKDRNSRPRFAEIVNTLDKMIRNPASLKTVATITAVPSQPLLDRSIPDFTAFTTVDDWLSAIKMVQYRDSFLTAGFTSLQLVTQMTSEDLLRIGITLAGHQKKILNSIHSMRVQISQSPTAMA

Sequence	phosphorylation enrichment
QGGRRYMMIVD [GAA_Y438]	0.487
CCKNRYDKDKP [THAP1_Y14_G9C]	0.29
RPASQYPHQVP [ADAM12_Y895_P893S]	0.205
KMKGDYYCYLA [YWHAG_Y130_R132C]	4.58
HESEIYGKVCY [CSRP3_Y57_C58G]	0.828
EESREYDRLYE [PIK3R1_Y463_K459E]	0.761
WNRDKYAATTT [TRIM39_Y439_G436R]	0.448
CEAMEYLESKQ [BTK_Y511]	0.882
VLAAQYTTVGR [SGSH_Y240_D235V]	0.503
PLAVPYLDKPP [JMJD7_Y31]	0.355
IPKTWYSAEQF [CD207_Y217]	3.19
NTYEKYLGEEY [TF_Y669]	0.601
RAIGFYSATSK [FAM120A_Y328_YF]	0.46
SIIKDYFHRGT [GATM_Y203_A208T]	0.42
RIVRKYKKVRF [F8_Y442_G439V]	0.699
GLRFGYGVLGG [KRTAP20-2_Y15_YF]	0.413
SVTFTYSPALN [TP53_Y126_C124Y_YF]	0.502

Sequence	phosphorylation enrichment
IRCQGYSHRIL [MYO3B_Y993_R990C]	0.46
IDSTPYGQWFE [RPS8_Y109_R110G_YF]	0.621
SVQIVYKPVDL [MAPT_Y627]	0.698
GSPPPYRRRKR [MBD1_Y403]	0.451
EEGNPYFSSTR [MCCC2_Y520_A524T_YF]	0.509
PPGRSYSPYDY [TNS1_Y793]	1.12
VHNLNYYKKTT [FGFR3_Y647_D646N]	0.429
APGDAYGDAGY [SYP_Y250]	0.541
GDYLSYREFHS [ERBIN_Y1107]	16.8
GGCQEYTGAPF [NAXD_Y85_YF]	0.541
HSDFQYSQRSQ [PKP2_Y168_YF]	0.752
GAALAYGLDKS [HSPA9_Y230_A225G]	0.337
GVFSRYFTTFD [CLCA1_Y661_YF]	0.458
TSPKSYPSQKH [CAP2_Y316]	0.364
PLDAEYFTLQI [TP53_Y327_G325A]	0.876
VNYGAYINDFN [GLB1_Y488_K493N]	0.737
